The results in this text go back to patent US20070092444A1, “Inhibition of inward sodium currents in cancer” (priority 2003, published 2007).

In data set [1] the target is T1, ASIC1 (recombinant: in vitro translated in proteoliposomes, expressed in Xenopus oocytes, reconstituted in planar lipid bilayers) (UniProt P78348).
T1 sequence: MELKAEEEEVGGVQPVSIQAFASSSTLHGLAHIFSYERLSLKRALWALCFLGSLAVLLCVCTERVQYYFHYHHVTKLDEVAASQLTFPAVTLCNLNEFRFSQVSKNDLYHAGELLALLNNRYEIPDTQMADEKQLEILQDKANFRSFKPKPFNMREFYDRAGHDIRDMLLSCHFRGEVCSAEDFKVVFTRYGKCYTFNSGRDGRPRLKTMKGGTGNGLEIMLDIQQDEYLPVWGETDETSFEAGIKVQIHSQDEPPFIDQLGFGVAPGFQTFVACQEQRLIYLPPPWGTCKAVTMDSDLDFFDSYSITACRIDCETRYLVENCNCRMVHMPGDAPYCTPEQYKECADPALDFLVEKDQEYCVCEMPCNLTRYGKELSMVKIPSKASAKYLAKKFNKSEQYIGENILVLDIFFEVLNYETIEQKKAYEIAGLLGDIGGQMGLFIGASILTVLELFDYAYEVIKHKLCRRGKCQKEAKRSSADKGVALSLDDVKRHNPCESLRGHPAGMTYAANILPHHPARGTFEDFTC

The target in data set [2] is T1, ASIC1 (recombinant: in vitro translated in proteoliposomes, expressed in Xenopus oocytes, reconstituted in planar lipid bilayers). In words: cell-based or functional assay.
In data set [3] the test system is constitutive amiloride-sensitive inward Na^+ current in high-grade glioma (GBM) cells. In words: Whole-cell patch clamp, freshly resected and primary cultured high-grade glioma (Grade III/IV, GBM) cells. The format is cell-based, human. The settings on record: 10 nM peptide; freshly resected GBM. The source says:
FIGS. 2A-C show representative whole-cell patch clamp recordings.
FIGS. 4A and B show summary I-V curves of freshly resected normal astrocytes (FIG. 4A) and GBM cells (FIG. 4B). Inward currents (−60 mV) were −7.5±1.2 pA (normal) and −43.8±14.5 pA (GBM). Outward currents (+40 mV) averaged 42.2±2.4 pA and 47.2±12.5 pA for normal and GBMs, respectively. FIGS. 4C and D show summary amiloride-sensitive (difference) currents of freshly resected normal astrocytes (FIG. 4C) and GBM cells (FIG. 4D).
A constitutive amiloride-sensitive inward Na^+ conductance has been reported in human high-grade glioma cells. […] These inward Na^+ currents were not present in normal astrocytes or in low-grade astrocytomas (e.g., pilocytic astrocytomas). However, the composition of the channels responsible for the inward Na^+ conductance has not been reported. FIGS. 2A-C show representative whole cell patch-clamp measurements on tissue derived from a freshly resected human glioblastoma multiforme (GBM; WHO grade IV), normal astrocytes obtained from patients undergoing surgery for intractable epilepsy, and primary cultures of different grade glial tumors. […] However, there was no significant inward Na^+ current in normal astrocytes and Grades I and II astrocytoma cells (FIG. 2C).
Summary current-voltage (I-V) curves are presented for normal astrocytes and GBM cells in FIG. 4A and FIG. 4B, respectively, while difference I-V curves for normal astrocytes and GBM cells are presented in FIG. 4C and FIG. 4D, respectively. The GBM cells are depolarized by an average of 31 mV compared to the normal astrocytes under these recording conditions. The depolarized zero current membrane potential is due to the presence of an enhanced Na^+ conductance as is shown in the difference I-V curves.
(§1) FIG. 19A show representative whole-cell patch clamp recordings of ZR-75-1 and SKMEL-2 cells in the basal state.
(In general: In patch-clamp work, channel activity is measured electrically.)

Data set [4] concerns inward Na^+ currents in SK-MG cells. In words: Whole-cell patch clamp, SK-MG glioma cells. The settings on record: 10 nM peptide. The format is cell-based, human. Here is the method:
FIGS. 7A-7C show representative whole-cell patch clamp recordings.
The amiloride-sensitive inward Na^+ currents are measured regardless of whether ASIC2 is absent or present (FIGS. 7A-D). Whole-cell patch clamp recordings were obtained from U87-MG, SK-MG, and D54-MG glioma cells in the basal state. […] This inhibition of the inward current occurred regardless of the absence or presence of ASIC2 mRNA (FIG. 7D) (as detected by RT-PCR as described above).
as §1

The target in data set [5] is T2, ASIC1 (Homo sapiens, UniProt P78348).
T2 sequence (P78348 1-528): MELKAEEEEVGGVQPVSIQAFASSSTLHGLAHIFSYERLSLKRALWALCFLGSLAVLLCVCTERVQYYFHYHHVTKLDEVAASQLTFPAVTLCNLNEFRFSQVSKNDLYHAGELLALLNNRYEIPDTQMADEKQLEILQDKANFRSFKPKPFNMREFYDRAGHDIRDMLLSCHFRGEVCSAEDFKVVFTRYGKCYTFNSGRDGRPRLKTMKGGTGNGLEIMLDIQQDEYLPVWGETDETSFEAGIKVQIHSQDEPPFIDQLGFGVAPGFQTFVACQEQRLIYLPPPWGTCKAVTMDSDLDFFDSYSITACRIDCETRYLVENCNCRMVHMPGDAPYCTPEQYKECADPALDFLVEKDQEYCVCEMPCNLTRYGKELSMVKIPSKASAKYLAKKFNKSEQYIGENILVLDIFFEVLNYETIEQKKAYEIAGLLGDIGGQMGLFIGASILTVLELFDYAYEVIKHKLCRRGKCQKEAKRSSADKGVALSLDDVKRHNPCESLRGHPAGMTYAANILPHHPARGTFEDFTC
Kind of data set: Acid-activated currents in voltage-clamped Xenopus oocytes expressing ASIC1. The format is cell-based. The conditions noted are these: 1 nM peptide (FIG. 20); pHo 4.0; −60 mV.
From the text: FIGS. 8A-C show acid-activated ASIC currents in Xenopus oocytes. ASIC 2 (FIG. 8A), ASIC1 (FIG. 8B) and the combination of ASIC2 and ASIC1 (FIG. 8C) were examined. […] Each oocyte served as its own control.
(§2) Membrane potential was held at −60 mV, and the pHo was step decreased to 4.0 for 10 s, and then returned to 7.4 for 30 s before repeating the sequence.
Xenopus oocytes were used to express ASIC1 and ASIC2 mRNA individually and in combination. Oocyte preparation, cRNA injection, and two-electrode voltage clamp recordings were performed as described (33,67-69).
as §2

Data set [6] concerns D54-MG glioma cells. Kind of data set: Transwell Migration Assay, D54-MG cells. The settings on record: 3 h, vitronectin. The format is cell-based, human. Here is the method:
5-8 μm polycarbonate Transwell filters were coated on the lower surface with or vitronectin ([…] in PBS). […] of D54MG cells (400,000 cells/ml were added to the upper chamber), in the presence or absence of benzamil, and migration was allowed to proceed for 3 hours. Migration was determined according to standard procedures (120). N-amidino-3,5-diamino-pyrazinecarboxamide was used as a control.
To begin to investigate the role of the inward Na^+ conductance in the invasive behavior of tumor cells, a Transwell Migration Assay was used to assess cell chemotaxis and invasiveness (FIG. 17). D54-MG cells were plated on the upper side of a filter insert perforated with 5-8 μm holes, and induced to migrate through these pores toward the extracellular matrix protein vitronectin (coated on the underside of the filter). Benzamil, at 10, 20, 50, or 100 μM, was added to both chambers at time 0. After a 3 h migration time, cells were fixed, stained with crystal violet, and counted. BSA-coated filter inserts were used as negative controls. […]
Approximately 10,000 cells were added to the upper side of a filter insert perforated with 5-8 μm holes, and induced to migrate through these pores toward the extracellular matrix protein vitronectin (coated on the underside of the filter). […] Cells were counted on an inverted microscope, averaging five fields per Transwell chamber. […]

In data set [7] the test system is U87-MG cells. In words: Transwell Migration Assay, U87-MG cells. The data set is classed as cell-based, human. The settings on record: 3 h, vitronectin.
The test system of data set [8] is primary GBM cultures. In words: Transwell Migration Assay, primary GBM cultures. The format is cell-based, human. The settings on record: 3 h, vitronectin. Here is the method: Approximately 10,000 cells were added to the upper side of a filter insert perforated with 5-8 μm holes, and induced to migrate through these pores toward the extracellular matrix protein vitronectin (coated on the underside of the filter). PcTX1 or control scrambled PcTX1 peptide was added to each compartment at the same time as the cells. BSA-coated filter inserts were used as negative controls. After 3 h, cells were fixed with 4% paraformaldehyde, and subsequently stained with crystal violet. Cells were counted on an inverted microscope, averaging five fields per Transwell chamber. Four-to-ten chambers were used under each condition.

Data set [9] has as its target ASIC1+ASIC2+γ-hENaC heteromeric channel (co-expressed in Xenopus oocytes; oocyte membrane vesicles in planar lipid bilayers) (human) (UniProt P78348). In words: cell-based or functional assay.
The target of data set [10] is T2, ASIC1. Kind of data set: Wild-type ASIC1 in planar lipid bilayers, single channel recording. The conditions noted are these: PKC isoforms. The format is biochemical. Here is the method: An expanded time scale is shown below each trace.
Wild-type ASIC1 incorporated into planar lipid bilayers at neutral pH or at acidic extracellular pH was also examined.
as §2
Control single channel were record for ASIC1 containing channels in bilayers bathed with symmetrical 100 mM NaCl, 10 mM MOPS, pH 6.2. Holding potential was +100 mV referred to the virtually grounded trans chamber. For illustration purposes, data shown were digitally filtered at 100 Hz using pCLAMP software (Axon Instruments) subsequent to acquisition of the analog signal filtered at 300 Hz with an 8-pole Bessel filter before acquisition at 1 ms per point. An expanded time scale is shown below each trace (FIG. 21).
Representative dwell-time histograms were constructed following the events analyses performed using pCLAMP software (Axon Instruments) on single channel recordings of 10 min in duration filtered at 300 Hz with an 8-pole Bessel filter before acquisition at 1 ms per point using pCLAMP software and hardware. The event detection thresholds were 50% in amplitude of transition between closed and open states, and 3 ms in duration. Closed and open time constants shown were determined by fitting the closed and open time histograms to the probability density function (Sigworth and Sine, 1987), and using the Simplex least square routine of pSTAT. Number of bins per decade in all histograms was 16.

Take PKCβII: in data set [1], the “ASIC1 activity in planar lipid bilayers (PKCβI and PKCβII added in combination)” value was “PKC holoenzyme or the combination of PKCβI and PKCβII isoforms inhibited ASIC1”; the “in vitro phosphorylation of ASIC1” value was “PKC holoenzyme, PKCβI, PKCβII, PKCδ, PKCε, and PKCζ phosphorylated ASIC1 in vitro”.

On to PKCβI, for which, in [1], the “ASIC1 activity in planar lipid bilayers (PKCβI and PKCβII added in combination)” value was “PKC holoenzyme or the combination of PKCβI and PKCβII isoforms inhibited ASIC1”; the “in vitro phosphorylation of ASIC1” value is “PKC holoenzyme, PKCβI, PKCβII, PKCδ, PKCε, and PKCζ phosphorylated ASIC1 in vitro”.

As to PKCε, in data set [1], the “ASIC1 activity in planar lipid bilayers” value is on record as “Neither PKCε, PKCζ, nor their combination had any effect on ASIC1 activity in bilayers”; the “in vitro phosphorylation of ASIC1” value was “PKC holoenzyme, PKCβI, PKCβII, PKCδ, PKCε, and PKCζ phosphorylated ASIC1 in vitro”.

For PKCε (enzyme), in data set [2], the reversal of the PKCβI+PKCβII inhibition of ASIC1 activity in bilayers (PKCε and PKCζ in combination) was 5 fold excess.

Take PKC holoenzyme: in data set [1], the “ASIC1 activity in planar lipid bilayers” value was “PKC holoenzyme or the combination of PKCβI and PKCβII isoforms inhibited ASIC1”; the “in vitro phosphorylation of ASIC1” value is “PKC holoenzyme, PKCβI, PKCβII, PKCδ, PKCε, and PKCζ phosphorylated ASIC1 in vitro”.

For the molecule PKCδ, the “in vitro phosphorylation of ASIC1” value in data set [1] was “PKC holoenzyme, PKCβI, PKCβII, PKCδ, PKCε, and PKCζ phosphorylated ASIC1 in vitro”.

For the molecule “scrambled PcTX1 control peptide: 40mer scrambled control peptide having the same amino acid content as PcTX1; SEQ ID NO: 3 (VLEPCKWGFRTCKGEDINCPKVWTRERSKCDCEVKRCHGP; control peptide)”, the “block of constitutive inward Na^+ current” value in [3] and in data set [4] was “unaffected” each time. In addition, the “block of acid-induced inward currents” value in [5] was “without effect”. For the same molecule, the “diminished ability to migrate through the filter” value in data set [6], in [7] and in data set [8] was “without effect” throughout.

For Syntaxin 1A GST fusion protein, the decrease in channel open probability (Po) in planar lipid bilayers, 25 µM syntaxin 1A in the cis chamber in data set [9] is 40%.

B1: PKCε: PKC isoform (protein, UniProt Q02156 1-737, looked up)
Protein kinase C epsilon type: MVVFNGLLKIKICEAVSLKPTAWSLRHAVGPRPQTFLLDPYIALNVDDSRIGQTATKQKTNSPAWHDEFVTDVCNGRKIELAVFHDAPIGYDDFVANCTIQFEELLQNGSRHFEDWIDLEPEGRVYVIIDLSGSSGEAPKDNEERVFRERMRPRKRQGAVRRRVHQVNGHKFMATYLRQPTYCSHCRDFIWGVIGKQGYQCQVCTCVVHKRCHELIITKCAGLKKQETPDQVGSQRFSVNMPHKFGIHNYKVPTFCDHCGSLLWGLLRQGLQCKVCKMNVHRRCETNVAPNCGVDARGIAKVLADLGVTPDKITNSGQRRKKLIAGAESPQPASGSSPSEEDRSKSAPTSPCDQEIKELENNIRKALSFDNRGEEHRAASSPDGQLMSPGENGEVRQGQAKRLGLDEFNFIKVLGKGSFGKVMLAELKGKDEVYAVKVLKKDVILQDDDVDCTMTEKRILALARKHPYLTQLYCCFQTKDRLFFVMEYVNGGDLMFQIQRSRKFDEPRSRFYAAEVTSALMFLHQHGVIYRDLKLDNILLDAEGHCKLADFGMCKEGILNGVTTTTFCGTPDYIAPEILQELEYGPSVDWWALGVLMYEMMAGQPPFEADNEDDLFESILHDDVLYPVWLSKEAVSILKAFMTKNPHKRLGCVASQNGEDAIKQHPFFKEIDWVLLEQKKIKPPFKPRIKTKRDVNNFDQDFTREEPVLTLVDEAIVKQINQEEFKGFSYFGEDLMP
Take B1: in data set [10], the “effect on ASIC1 activity in bilayers” value is “Neither PKCε, PKCζ, nor their combination had any effect”.
